Measured values published in patent US12280121B2, “Immunoconjugates and methods” (Immunome, Inc., priority 2021, dated 2025).
Like-named read-outs stand apart in the source and are kept apart here.

Test system: Jeko-1
Experiment: CTG assay of ROR-1 ADCs and toxins, JeKo-1
Assay type: cell-based
Protocol: FIG. 33 illustrates a CTG assay wherein ROR+ (JeKo-1) cells were incubated with the ADCs generated as described in FIG. 32 in serial three-fold dilutions and cell viability was assessed after 72 hours.
The CTG assay is a method of determining the number of viable cells in culture based on quantitation of the ATP present, an indicator of metabolically active cells. The cell assay requires the addition of a single reagent, Cell Titer Glo, in which cells are lysed and generation of a luminescent signal is produced. The luminescent signal is proportional to the amount of ATP present. The amount of ATP is directly proportional to the number of cells present in culture. For our assay, cells were ensured to be in log-phase for either Jeko-1 or MDA-MB-468. Cells were transferred to 96 wells and treated with compounds in three-fold serial dilution starting from 1 μM to 0.0000508 μM (10 points dilution), for 72 h. Cell viability was analyzed with CellTiter-Glo® Luminescent Cell Viability Assay (Promega) following manufactures' instruction. Percentage of viable cells in each compound concentration was determined by normalizing with the luminescence of vehicle control and plotted into percentage of viability versus dose response curve by nonlinear fit in GraphPad Prism software.
Novel ROR-1 antibody-drug conjugates (ADCs) were evaluated by CTG Assay in a similar manner as was described in Example 24 for screening of payloads. […] Briefly ROR+(JeKo-1/MDA-MB-468) or ROR− (Ramos) cells were transferred to 96 wells and treated with the ADCs in three-fold serial dilution starting from […] (10 points dilution), for 72 h. Cell viability was analyzed with CellTiter-Glo® Luminescent Cell Viability Assay (Promega) following the manufactures' instructions (FIG. 33). The percentage of viable cells at each ADC concentration was determined by normalizing with the luminescence of vehicle control and plotted into percentage of viability versus dose response curve by nonlinear fit in GraphPad Prism software.

B1: VLS-101 (conjugate, chains of the INN, looked up)
VH: QVQLQESGPGLVKPSQTLSLTCTVSGYAFTAYNIHWVRQAPGQGLEWMGSFDPYDGGSSYNQKFKDRLTISKDTSKNQVVLTMTNMDPVDTATYYCARGWYYFDYWGHGTLVTVSS
VL: DIVMTQTPLSLPVTPGEPASISCRASKSISKYLAWYQQKPGQAPRLLIYSGSTLQSGIPPRFSGSGYGTDFTLTINNIESEDAAYYFCQQHDESPYTFGEGTKVEIK
modifications: vedotin (MMAE) payload
IC50 (Jeko-1, average of run 1 and run 2, read-out: Avg. IC50): 60.1 nM | IC50 (Jeko-1 P3, run 1, 72 h, read-out: Jeko-1 P3 (RUN1) IC50): 63.4 nM | IC50 (Jeko-1 P4, run 2, 72 h, read-out: Jeko-1 P4 (RUN2) IC50): 56.8 nM
